# Measured values reported in the nanobody polyreactivity screen of Harvey et al. (2022).
# Assay: yeast display, Sf9 membrane polyspecificity reagent, FACS + sequencing; frameworks hold sequencing errors
# Outline: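 Polyreactivity labels are assigned by the sorting gate from which each nanobody was recovered. The gates were low and high (top ~1%), set on anti-HA fluorescence for expression and streptavidin fluorescence for reagent binding. Before sorting, galactose-induced (36–48 hours) yeast display cells were stained for 1 hour at 4 °C with 10% biotinylated, detergent-solubilized Sf9 membrane reagent.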
row,Sequence,polyreactivity (PSR sort gate)
1,QVQLVESGGGLVQAGGSLRLSCAASGSTFYRNAMGWYRQAPGKERELVAAIRKTGGSTHYADSVKGRFTISRDNAKNTVYLQMNSLKPEDTAVYYCNATYIYGWYNYWGQGTQVTVSS,low polyreactivity
2,QVQLVESGGGLVQAGGSLRLSCAASGSTLASYAMGWYSQAPGKERELVAVIDSGGSTYYADSVKGRFTISRDNAKNSVYVQMNSLKPEDTAVYDCAAGWEFSGVLTLFGYWGQGTQVTVSS,low polyreactivity
3,QVQLVESGGGLVQAGGSLRLSCAASGFSFGIYAMGWYRQAPGKERELVADITASGGSTYYADSVKGRFTISRDNAKNTVYLQMNSLKPEDTAVYYCAADGWWHNFYPGTGLDYWGQGTQVTVSS,low polyreactivity
4,QVQLVESGGGLVQAGGSLRLSCAASGSTLRDYVMGWYRQAPGKERELVAAITSRVDDTYYADSVKGRFTISRDNAKNTVYLQMNSLKPEDTAVYDCAADYSVTLRIGGYYWFYAFDYWGQGTQVTVSS,low polyreactivity
5,QVQLVESGGGLVQAGGSLRLSCAASGSIFLIYAMGWYRQAPGKERELVAAIDWGGGANTYYADSVKGRFTISRDNAKNTVYLQMNSLKPEDTAVYYCAVDSYTSGYEYWGQGTQVTVSS,low polyreactivity
6,QVQLVESGGGLVQAGGSLRLSCAASGNIFDTNAMGWYRQAPGKERELVATITQRGGTTYYADSVKGRFTISRDNAKNTVYLQINILKPEDTAVYYCNAGPVRLPYDSWGQGTQVTVSS,low polyreactivity
7,QVQLVESGGGLVQAGGSLRLSCAASGSTFTYYAMGWYRQAPGKERELVAAISSTDSTYYADSVKGRFTISRDNAKNTVYVQMNSLKPEDTAVYYCAAVRFSHSRETRRGYWGQGTQVTVSS,high polyreactivity
8,QVQLVESGGGLVQAGGSLRLSCAASGRIFGRNTMGWYRQAPGKERELVAVISWRGGSTYYADSVKGRFTISRDNAKNTVYLQMNSLKPEDTAVYDCNPKYPFSRRGDYWGQGTQVTVSS,high polyreactivity
9,QVQLVESGGGLVQAGGSLRLSCAASGRTFVRNAMAWYRQAPGKERELVAAITYGGGNTYYADSVKGRFTISRDNAKNTVYLQMNSLKPEDTAVYYCAKRRLYWSGQGWVRTYGYWGQGTQVTVSS,high polyreactivity
10,QVQLVESGGGLVQAGGSLRLSCAASGSTFDYNAMGWYRQAPGKERELVAAISRGGNTYYADSVKGRFTISRDNAKNTVYLQMNSLKPEDTAVYYCAKDSYGSYRFVRKRQKAYGYWGQGTQVTVSS,low polyreactivity
11,QVQLVESGTGLVQAGGSLRLSCAASGSIFAYYAMGWYRHAPGKERELVAAISSRGGNTYYADSVKGRFTISRDNAKNNVYLQMNSLKPEDTAVYYCAADYQYSYGEYDYWGHGTQVTVSS,high polyreactivity
12,QVQLVESGGGLVQAGGSLRLSCAASGRILGSYAMGWYRQAPGKERELVAAISRGGGRTYYADSVKGRFTISRDNAKNTVYLQMNSLNPEDTAVYYCNAPVTGSSSYFSQHFDYWGQGTQVTVSS,high polyreactivity
13,QDQLVESGGGLVQAGDSLRLSCAASGIILLSYAMGWYRQAPGKERELVAAITSGGGTNYADSVKGRFTISRDNAKNTVYLQMNSLKPEDTAVYYCAVGAYAGLYYYWGQGTQVTVSS,low polyreactivity
14,QVQLVESGGGLVQAGGSLRLSCAASGRIFVHYAMGWYRQAPGKERELVAAITSGSSTNYADSVKGRFTISRDNAKNTVYLQMNSLKPEDTAVYYCAADYSVHLVRDRWFDYWGQGTQVTVSS,low polyreactivity
15,QVQLVESGGGLVQAGGSLRLSCAASGFIFARYAMGWYRQAPGKERELVAAISSSGGITYYADSVKGRFTISRDNAKNTVYFQMNSLKPEDTAVYYCAAPLGGGARWGRWWLYDSWGQGTQVTVSS,low polyreactivity
16,QVQLVESGGGLDQAGGSLRLSSAASGSIFSGYAMGWYRQAPGKERELVAAISSSGTRTYYADSVKGRFTISRDNAKNTVYLQMNSLKPEETAVYYCNAATSKVQFSGYGYWGQGTQVTVSS,high polyreactivity

row,Sequence,polyreactivity (PSR sort gate)
1,QVQLVESGGGLVQAGGSLRLSCAASGRIFYINAMGWYRQAPGKERELVAAISGSGGDTYYADSVKGRFTISRDNAKNTVYLQMNSMKPEDTAVYYCGAEVYTWGQGTQVTVSS,low polyreactivity
2,QVQLEESRGGLVQAGGSLRLSYPASGRTYVTYAMGWYRQAPGKERELVAAITSGGSTNYADSVKGRFTISRDNAKNTVYLQMNSLKPEDTAVYYCAKAYLWYKGIFDYWGQGTQVTVSS,low polyreactivity
3,QVQLVESGGGLVQAGGSLRLSCAASGRIFAYNTMGWYRQAPGKERELVAVITSGGSTNYADSVNGRFTISRDNAKNTVYLQMNSLKPEDTAVYYCAKRPYGRSGGSRYDYWGQGTQVTVSS,high polyreactivity
4,QVQLVESGGGLVQAGGSLRLSCAASGLIIRWYAMGWYRQAPGKERELVAAITRAGSTNYADSVKWRFTISRDNAKNTVYLQMNSLKPEDTAVYYCAAVAVELASEYDYWGQGTQVTVSS,low polyreactivity
5,QVQLVESGGGLVQAGGSLRLSCAASGSTLSYYAMGWYRQAPGKERELVAAISFSGGITYYADSVKGRFTISRDNAKNTVYLQMNSLKPEDTAVYYIKAEYKVYRAYVIWYDYWGQGTQVTVSS,high polyreactivity
6,HVQLVESGGGLVQAGGSLRISCAASGITFYAYAMGWYRQAPGKERELVAAITRRGGSTRYADSVKGRFTITRDNAKNTVYLQMNSLKPEDTAVYYCNARSGRYFLGYGYWGQGTQVTVSS,high polyreactivity
7,QVQLEESRGGLVQAGGSHRLSCAAYGSIFRSYAMGWYRQAPGKERDLVAAISSRSGSTYYADSVKGRFTISRDNAKNTVYLQMNSLKPEDTAVYYCAAQHRHSFGYWGQGTQVTVSS,high polyreactivity
8,QVQLVESGGGLVQAGGSLRLSCAASGSTLWLYAMGWYRQAHGKERELVAVISNSGSTYYAESVKGRFTISRDNAKNTVYLQMNSLKPEDTAVYSCNKDGGGDSYWYDYWGQGTQVTVSS,low polyreactivity
9,QVQLVESGGGLVQAGGSLRLSCAASGSIFYLYAMGWYRQAPGKERELVAAITWRGGITNYADSVKGRFTISRDNAKNTVYLQMNSLKPEDTAVYYCAADPYRFLATELYYWGQGTQVTVSS,low polyreactivity
10,QVQLVESGGGLVQAGGSLRLSCAASGFTSYDNAMGWYRPAPGKERELVAASTWDGGSTYYADSVKGRFTISRDNAKNTVDLQMNSLKPEDTAVYDCAADLADFYPRYNYWGQGTQVTVSS,low polyreactivity
11,QVQLVESGGGLVQAGGSLRLSCSASGFIFYSYAMGWSRPAPGKEREFVAAISRSGGITYYADSVKGRFTISRDNAKNTVYLQMNSLKPEDTAVYYCAKVGRAVSSIKDMDSWGQGTQVTVSS,high polyreactivity
12,QVQLEESGGGLVQAVRSLRLSCAASGSTFDYYAMRWFRQAPWKEREFVAAISVSGGRTYDADSVKGRFTISRDNAKTTVYLQMNSQKPEDTAVSYCAAVQWYLPSFRYYYRGQGTQVTVSS,high polyreactivity
13,QVQLVESGARLVQAGGSLRLSCAASGLIFYGNAMGWYRQAPGKERELVAAISRRGGRTYYADSVKGRFTISRDNAENTVYLQKNSLKPEDTAVYYCAAQYSYPYYKVTLYYWGQGTQVTVSS,high polyreactivity
14,QVQLVESGGGLVQAGGSLRLSCAASGSTFGGYVMGWYRQAPGKERELVAAIRRVGRTYYADSVKGRFTISRDNAKNTVYLQMNSLKPEDTAVYYCATSYYLAYRSITPYDYWGQGTQVTVSS,low polyreactivity
15,QVQLVESGRGLVQAGCSLRLTCAASGSIFPQYAMGWYRQAPGQERELVAAITRSGGGTHYADSVKGRFTISRDNAKNTVYLQMNSLKPEDTAVYYCAKAGYRSEFEYWGQGTQVTVSS,low polyreactivity
16,QVQLVESGGGLVQAGGSLRLSCAASGSTFDGNDMGWYRQAPGKERELVAAITIGGGSTYYADSVKGRFTISRDNAKNTVYLQMNSLKPEDTAVYYCAAVYFYSWEGDGDYWGQGTQVTVSS,low polyreactivity
